Test system: K4 kissing-loop RNA reporter
Assay: apparent KD of K4 kissing-loop reporter; higher = weaker reporter binding
Conditions: Eterna round: R107
Description: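 RNA-MaP round R107: designed RNA switches with theophylline, tryptophan, arginine or FMN aptamers are transcribed on-chip within common flanks. They are titrated with a labelled K4 kissing-loop RNA reporter in RNA-MaP buffer (100 mM Tris pH 7.5, 80 mM KCl, 4 mM MgCl2), without ligand or with the indicated ligand. Median apparent KD per design.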

[1] = input ligand: theophylline 20 uM
[2] = input ligand: tryptophan 2.4 mM
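Further: bound reporter read as fluorescence of individual clusters on recovered sequencing chips by microscopy, with normalized cluster intensities fitted with a binding model.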

Sequence	apparent KD of K4 kissing-loop reporter (input ligand: FMN 200 uM) [nM]	apparent KD of K4 kissing-loop reporter (input ligand: arginine 13.2 mM) [nM]	apparent KD of K4 kissing-loop reporter (input ligand: none) [nM]	apparent KD of K4 kissing-loop reporter [1] [nM]	apparent KD of K4 kissing-loop reporter [2] [nM]
AAAAUAAACCAGUGAUGUUGGUGUCCAGAUACCAGCGAUAAUAAUCGCCCUUGGCAGCUGCGGACGUACAAAAUAAGUACGUCCU [MatMod 11 - Jieux - Same State - Theophylline A]	482	351	513	294	408
AAAAUAAACCAGUGAUGUUGGUGUCCAGAUACCAGCGAUAAUCAUCGCCCUUGGCAGCUGCGGACGUACAAAAUAAGUACGUCCU [MatMod 12 - Jieux - Same State - Theophylline A]	665	475	707	399	567
AAAAUAAACCAGUGAUGUUGGUGUCUGGAUACCAGCGACGAAAGUCGCCCUUGGCAGCUACGGACGUACAAAAUAAGUACGUCCU [MatMod 8 - Jieux - Same State - Theophylline A]	709	487	655	680	561
AAAAUAAAGCAGUCAAUCGGAGUGAUGUUCCGAGGACCGGUACGGCCGCCACUCGAGAGUCCAAAGGACUCAUGGCGAGACUGCA [#SwitchBubble 17 #K4Early]	97	94.8	93.2	92.6	90.1
AAAAUAAAUCAGUGAUGUUGGUGUCCAGAUACCAGCGACGAAAGUCGCCCUUGGCAGCUGUGGACGUACAAAAUAAGUACGUCCU [MatMod 22 - Jieux - Same State - Theophylline A]	610	316	611	335	465
AAAAUAAGCCAGUGAUGUUGGUACCCAGAUACCAGCGACGAAAGUCGCCCUUGGCAGCUGUGGACGUACAAAAUAAGUACGUCCU	434	209	315	617	303
AAAAUAAGCCAGUGAUGUUGGUAGCCAGAUACCAGCGACGAAAGUCGCCCUUGGCAGCUGUGGACGUACAAAAUAAGUACGUCCU	1010	751	928	711	723
AAAAUAAUCCAGUGAUGUUGGUAUCCAGAUACCAGCCACGAAAGUGGCCCUUGGCAGCUGUAGGACGUACAAAUAAGUACGUCCA [#OpenEnded 7 #StaticStem #K4Early]	361	175	345	486	444
AAAAUAAUCCAGUGAUGUUGGUAUCCAGAUACCAGCCAGGAAACUGGCCCUUGGCAGCUGUGGACGUACAAAAUAAGUACGUCCU [#OpenEnded 10 #StaticStem #K4Early]	481	268	464	611	355
AAAAUAAUCCAGUGAUGUUGGUAUGCAGAUACCAGCGACGAAAGUCGCCCUUGGCAGCUGUGGACGUACAAAAUAAGUACGUCCU	923	491	933	979	855
AAAAUAAUCCAGUGAUGUUGGUUUCCAGAUACCAGCGACGAAAGUCGCCCUUGGCAGCUGUGGACGUACAAAAUAAGUACGUCCU	318	362	359	276	300
AAAAUUGCGGUUUUAAGAUCUUUUUGCUUACGAGGACCGGUACGGCCGCCACUCGAGUCAAGUGAUGUUUGAUUUUCUAUUAUUA [JR_ExcTryptoA_Sub015]	92.4	179	136	189	71.6
AAACAACGUGACGAUACCAGCUUACUCGGCAAGCCAGUGAUGUUGGUGAAAAGGAGUCAAAGCCCUUGGCAGCGUCGAAGGUCUG [Georbeer]	332	326	427	150	325
AAACAUUGGUCUGAUACCAGCUUGAUCGGUAAACGAUCUACUGGAGUGAUGUUCCUAAAUAGCCCUUGGCAGCAGACCGAUGAAA [MAT - Same State Theophlline B - Mod of Eli - D6]	187	172	177	132	181
AAACAUUGGUCUGAUACCAGUUAGACCGAUAAGGUCAAAACUGGAGUGAUGUUCCCAAAUAACCCUUGGCAGCAGACCGAUGAAA [MAT - Same State Theophlline B - Mod of Eli - D10]	147	66	212	185	231
AAACGCUGGUGAAUAACACUAGCGAAUUCGCGAGGACCGGUACGGCCGCCACUCGCUAACUGCGAGUGAUGUUCGAUAAUAAAAU [Mat - Mod of OpenEnded 3 - D2]	141	107	154	189	142
AAACGUUGGUCGGAUACCAGUUAGACCGAUAAGGUCAAAACUGGAGUGAUGUUCCCAAAUAACCCUUGGCAGCCGACCGACGAAA [MAT - Same State Theophlline B - Mod of Eli - D12]	318	126	214	219	213
AAACGUUGGUCUGAUACCAGCUUGAUCGGUAAACGAUCUACUGGAGUGAUGUUCCUAAAUAGCCCUUGGCAGCAGACCGACGAAA [MAT - Same State Theophlline B - Mod of Eli - D7]	195	163	173	118	170
AAACUUGCAGUGAUGUUGCAAGUAGGUGAUACCAGCAUCGAAAGAUGCCCUUGGCAGCACCAAAACAUCACUUAGGUGCUGUCUA [(H1)-(H2)-(T1)-(T2)-(H)'-(T)'_Design6]	757	494	622	603	614
AAAUAGAUCAGUCAACCAGUGAUGUUGGAAGGAGCGUGCGAAAGCACAGGUAGGUCGCCAGAAUAAAAGUGGCUGAUCAAAAUAA	357	384	374	508	214
AAAUAGAUCAGUCACCCAGUGAUGUUGGAAGGAGCGUGCGAAAGCACAGGUAGGUCGCCAAAAUAAAAUUGGCUGAUCAAAAUAA	304	310	361	485	195

Sequence	apparent KD of K4 kissing-loop reporter (input ligand: FMN 200 uM) [nM]	apparent KD of K4 kissing-loop reporter (input ligand: arginine 13.2 mM) [nM]	apparent KD of K4 kissing-loop reporter (input ligand: none) [nM]	apparent KD of K4 kissing-loop reporter [1] [nM]	apparent KD of K4 kissing-loop reporter [2] [nM]
AAAUCGUUCAGAAGGAGCGUGGUAUAAUCAUUAAUAUUUAUUACGAGUGAUGUUCGUAAUUCACAGGUAGGUCGCUGAUCGAUAA [JR_SSArginiB_Sub006]	88.6	94.6	86	99.8	82.7
AAAUGCAGCAAACGAGUGAUGUUCGACGAUACCAGCCUCGAUAGAGGCCCUUGGCAGCGUACAUCAAAGCCAAGGGCUGCUAAAA [#SwitchBubble 3]	483	463	552	499	454
AAAUUCUUUUUUUUAUUUAACUUUUCAGAAGGAGCGUGGUAGUACACAGGUAGGUCGCUGAAUUUUGGACUAGUGAUGUUAGUUA [JR_SSArginiA_Sub007]	156	154	158	228	153
AAAUUCUUUUUUUUAUUUAACUUUUCAGAAGGAGCGUGGUAGUUCACAGGUAGGUCGCUGAAUUUUGGACUAGUGAUGUUAGUUA [JR_SSArginiA_Sub006]	148	214	234	216	158
AAAUUUAAUAUAUUUAAUUAAUUAUGUGAUACCAGACAUUUAUAAGUCCCUUGGCAGCACUUUGCAGUGAUGUUGCAUAUAAUAA [JR_SSTheophyA_Sub013]	89	185	121	157	99.2
AAAUUUUCAAGUGAUACCAGACAUCUCUAUUACAUUAAUAUAGCUAAGUGAUGUUUAGCAGUCCCUUGGCAGCACAAUUUAAUUA [JR_SSTheophyB_Sub013]	255	202	297	337	215
AACAGCAAUGCGGCCGCCACUUCGAGGUCAGUGAUGUUGACGGAAUUAAAUAAAGAUCCCAAGAGGAGGACCGGGCAGUGCUGUU [whbob_SS_Tryp_B_t25]	468	465	499	410	289
AACAGCAAUGCGGCCGCCACUUCGAGGUCAGUGAUGUUGACGGGAUUAAAUAAAGAUCCCAAGAGGAGGACCGGGCAGUGCUGUU [whbob_SS_Tryp_B_t26]	225	195	215	176	192
AACCACUCGUUACAUCACUAUCGAGUGGAACGAGGACCGGUACGGCCGCCACUCGAUUAGAUGCAGUGAUGUUGCAUCUUAGAAU [KL-SSTryp-A (BrourdMod)3 #dotplot2 strengthened]	195	163	165	176	133
AACCACUCGUUACAUCACUAUCGAGUGGAACGAGGACCGGUACGGCCGCCACUCGGUAACAAGCAGUGAUGUUGCUUGUAAGAAU [KL-SSTryp-A (BrourdMod)2 #dotplot2 strengthened]	298	252	307	312	164
AACCGAGGUAAUCCACAAUGAUUAGAAGAUACCAGAUAUAUAAAUAUCCCUUGGCAGCUUUGAAUGAGUGAUGUUCAUUUGUCAU [KL-SSTheo-A11]	126	207	159	214	104
AACCGCCAGUCGGCCGCCACUCACAGCAGUGAUGUUGCUGAAAAUCUAAAAGAGUGAUGUUCUUAGAGGACCGGGACUCCAGGCG [Same State Tryptophan B GF 5]	260	76.9	218	56.7	145
AACGCUGGUGAAUAACACUAGCGAAAAUUCCGAGGACCGGUACGGCCGCCACUCGGCUAACUGCGAGUGAUGUUCGAUAAUAAAA [Mat - Mod of OpenEnded 3 - D9]	80.3	183	109	189	60.2
AACGGCCAGUCGGCCGCCACUCGAUGCAGUGAUGUUGCUAACUUUCUAAAAGAGUGAUGUUCAUGGAGGACCGGGACUAAUGUAA [#29 K4 Tryptophan B Exclusion]	349	298	346	382	228
AACUCUCAGACACCUGAGUGAUGUUCAGGCCGAGGACCGGUACGGCCGCCACUCGGGUCUGAGAGAGGUUAUCAAAGAUAGCCAA [Omei KL Tryp A SS A v3]	675	244	336	304	338
AACUCUCAGACAUUUGAGUGAUGUUCAGGCCGAGGACCGGUACGGCCGCCACUCGGGUCUGAGAGAGGUUAUCAAAGAUAGCCAA [Omei KL Tryp A SS A v6]	467	179	234	214	385
AACUGUCAAGGACAACAUUACUGAGGUGAUACCAGCAUCGAAAGAUGCCCUUGGCAGCACUAACUUGCAGUGAUGUUGCAAGUAA [BrourdMod 2 - Jieux - Exclusion - Theophylline A]	211	173	193	197	206
AACUGUCAAGGCCGACAUUACUGAGGUGAUACCAGCAUCGAAAGAUGCCCUUGGCAGCACCAACUUGCAGUGAUGUUGCAAGUAA [BrourdMod 14 - Jieux - Exclusion - Theophylline A]	191	158	170	198	184
AAGAAGGUCAAAGACCUUCGUGCACCUGAUACCAGUCGCGAAAGCGACCCUUGGCAGCAGGGCAGUGAUGUUGCCAAGUGCACAA [Omei KL Theo A SS A v1]	782	650	898	400	823
AAGAAGGUCAAAGACCUUCGUGCUCGUGAUACCAGUCGCGAAAGCGGCCCUUGGCAGCACGGCAGUGAUGUUGCCAAGAGCACAA [#13 K4 Theophylline A Same State]	318	86.6	190	413	211

From the supplement of paper PMC9170038
